Laboratory results from publication PMC4587089, “Molecular cloning of AtRS4, a seed specific multifunctional RFO synthase/galactosylhydrolase in Arabidopsis thaliana” (Frontiers in Plant Science, 2015).

Columns and labels:
Assay type in all cases: biochemical, Arabidopsis thaliana
[1] = substrate: OC[C@H]1O[C@H](OC[C@H]2O[C@H](O[C@]3(CO)O[C@H](CO)[C@@H](O)[C@@H]3O)[C@H](O)[C@@H](O)[C@@H]2O)[C@H](O)[C@@H](O)[C@H]1O; test: HPAEC-PAD, stachyose formation; details: stachyose synthase reaction, galactosyl acceptor, co-substrate galactinol (standard assay 100 μM), 25 mM K-phosphate pH 7, 25°C, 60 min
[2] = substrate: OC[C@H]1O[C@H](O[C@@H]2[C@@H](O)[C@H](O)[C@@H](O)[C@H](O)[C@@H]2O)[C@H](O)[C@@H](O)[C@H]1O; test: HPAEC-PAD, stachyose formation; details: stachyose synthase reaction, galactosyl donor, co-substrate raffinose (standard assay 400 μM), range 50 to 1,200 μM, 25 mM K-phosphate pH 7, 25°C, 60 min
[3] = substrate: OC[C@H]1O[C@H](OC[C@H]2O[C@H](OC[C@H]3O[C@H](O[C@]4(CO)O[C@H](CO)[C@@H](O)[C@@H]4O)[C@H](O)[C@@H](O)[C@@H]3O)[C@H](O)[C@@H](O)[C@H]2O)[C@H](O)[C@@H](O)[C@H]1O; test: HPAEC-PAD, raffinose formation; details: galactosylhydrolase reaction, stachyose alone, range 50 to 1,200 μM, 25 mM K-phosphate pH 7, 25°C, 60 min

B1: AtRS4 (AtSTS, AtStaS, At4g01970) (Arabidopsis thaliana) (protein)
chain: MAPLHESLSSINDVIESKPLFVPITKPILQPNSFNLSEGSLCAKDSTPILFDVPQNVTFTPFSSHSISTDAPLPILLRVQANAHKGGFLGFTKESPSDRLTNSLGRFEDREFLSLFRFKMWWSTAWIGKSGSDLQAETQWVMLKIPEIDSYVAIIPTIEGAFRASLTPGEKGNVLICAESGSTKVKESSFKSIAYIHICDNPYNLMKEAFSALRVHMNTFKLLEEKKLPKIVDKFGWCTWDACYLTVDPATIWTGVKEFEDGGVCPKFVIIDDGWQSINFDGDELDKDAENLVLGGEQMTARLTSFKECKKFRNYKGGSFITSDASHFNPLKPKMLIYKATERIQAIILRRKLVKESGEQDLTELDEKIKILSEELNAMFDEVEKEESLGSDDVSGSGMAAFTKDLRLRFKSLDDIYVWHALCGAWNGVRPETMMDLKAKVAPFELSPSLGATMADLAVDKVVEAGIGLVHPSKAHEFYDSMHSYLASVGVTGAKIDVFQTLESLAEEHGGRVELAKAYYDGLTESMIKNFNGTDVIASMQQCNEFFFLATKQISIGRVGDDFWWQDPYGDPQGVYWLQGVHMIHCSYNSIWMGQMIQPDWDMFQSDHVCAEYHAASRAICGGPVYLSDHLGKASHNFDLIKKLAFFDGTIPRCVHYALPTRDSLFKNPLFDKESILKIFNFNKFGGVIGTFNCQGAGWSPEEHRFKGYKECYTTVSGTVHVSDIEWDQNPEAAGSQVTYTGDYLVYKQQSEEILFMNSKSEAMKITLEPSAFDLLSFVPVTELVSSGVRFAPLGLINMFNCVGTVQDMKVTGDNSIRVDVKGEGRFMAYSSSAPVKCYLNDKEAEFKWEEETGKLSFFVPWVEESGGISHLSFTF
- Km [1]: 259.2 ± 21.15 µM
- Km [2]: 1,170 ± 246.8 μM
- Km [3]: 1,059 ± 269.3 μM
